One test relates to HEK-5T4 cells. Put plainly: Internalization assay (Incucyte FabFluor-pH), HEK-5T4 cells. Format: cell-based. The protocol:
Adherent cells were harvested at 70-90% confluence and were plated overnight at 37° C. in a 96-well black, clear/flat bottom half-area plate (Corning 3882) at 20,000 cells/well in 50 μL culture media. For suspension cell lines, 96-well plates were coated with poly-L-ornithine solution (Millipore-Sigma) for 1 hour at 37° C. and cells were seeded at 40,000 cells per/well density in 50 μL culture media, about 1 to 2 hours prior to the assay. Antibodies were diluted in cell culture media, mixed with 3× molar concentration of Incucyte human FabFluor-pH red antibody labelling reagent and incubated for 15 minutes at room temperature. 2× final concentration of all dilutions of antibody/FabFluor mix was prepared. 50 μL of 2× antibody/Fab-Fluor mix was then directly added to every well with pre-seeded cells in duplicates and plate was quickly transferred to Incucyte. Plates were then scanned every 30 minutes for up to 24 hours. Care was taken to begin the first scanning (0 hour) within 2 to 3 minutes of adding antibody/FabFluor mix to the cells. Plates were analyzed by reading the red signal generated overtime, normalized to the % confluence of cells in that well. Few antibodies were tested at different concentrations on target cell lines, and the best concentration was selected based on a good signal:noise ratio.

The next test addresses T1, cyno 5T4 (Macaca fascicularis, UniProt Q4R8Y9).
T1 construct: made in house
T1 sequence (Q4R8Y9 35-355 limits assumed): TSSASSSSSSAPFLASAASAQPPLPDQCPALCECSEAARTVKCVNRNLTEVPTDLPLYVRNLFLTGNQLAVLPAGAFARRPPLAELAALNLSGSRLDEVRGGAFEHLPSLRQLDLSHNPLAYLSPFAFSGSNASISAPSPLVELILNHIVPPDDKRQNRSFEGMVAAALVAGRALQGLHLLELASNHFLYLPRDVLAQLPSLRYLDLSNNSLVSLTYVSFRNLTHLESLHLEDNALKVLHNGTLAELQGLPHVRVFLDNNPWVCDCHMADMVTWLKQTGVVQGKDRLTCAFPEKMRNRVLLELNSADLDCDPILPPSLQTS
Put plainly: Octet bivalent binding assay, cyno 5T4. Further details: species or system cynomolgus monkey; key: +: An increase in signal during the association step above the negative control was considered as binding to the antigen. To be noted: 200 nM biotinylated antigen immobilized, antibody at 500 nM. The source says: (§1) Bivalent binding assays were employed to provide data on whether antibodies with VH/VL obtained by the phage display in Example 1 bound immobilized 5T4 from all three clinically relevant species: human, cynomolgus monkey (cyno), and mouse. For the bivalent binding and cross-reactivity assays the 5T4 human, cyno, and mouse antigens were synthesized using sequences from the protein database and expressed as biotinylated proteins using a his-avi tag and in vivo biotinylation with co-expressed BirA enzyme.
(§2) A standard Octet-based assay was used to determine qualitatively if each antibody bound to each antigen. For these assays, 200 nM biotinylated antigens were immobilized on streptavidin biosensors in 1× kinetic buffer (ForteBio). The loaded sensors were then dipped in wells containing an antibody of interest at 500 nM and the association binding signal was monitored. An increase in signal during the association step above the negative control was considered as binding to the antigen.
In general terms: In BLI a coated tip is dipped into the sample, and binding shifts an interference pattern.

Another test concerns the target T2, human 5T4 (Homo sapiens, UniProt Q13641).
T2 sequence (Q13641 32-355 limits assumed): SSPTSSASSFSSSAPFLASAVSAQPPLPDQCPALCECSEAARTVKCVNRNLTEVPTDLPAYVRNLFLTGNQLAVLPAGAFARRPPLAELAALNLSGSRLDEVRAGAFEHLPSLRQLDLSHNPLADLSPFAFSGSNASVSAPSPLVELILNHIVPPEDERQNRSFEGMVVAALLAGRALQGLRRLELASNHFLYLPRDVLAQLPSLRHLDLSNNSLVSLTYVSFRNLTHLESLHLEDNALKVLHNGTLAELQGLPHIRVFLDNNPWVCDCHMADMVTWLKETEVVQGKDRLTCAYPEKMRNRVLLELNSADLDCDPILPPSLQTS
Put plainly: Octet bivalent binding assay, human 5T4. More on the design: The extracellular domain of human 5T4 was purchased from Acro Biosystems (biotinylated human 5T4 His-AVITAG™ Acro Cat No. TPG-H83Eb) or produced; made in house; key: +: An increase in signal during the association step above the negative control was considered as binding to the antigen. To be noted: 200 nM biotinylated antigen immobilized, antibody at 500 nM.
Text: as §1, §2

Another test addresses T3, mouse 5T4 (Mus musculus, UniProt Q9Z0L0).
T3 construct: made in house
T3 sequence (Q9Z0L0 32-361 limits assumed): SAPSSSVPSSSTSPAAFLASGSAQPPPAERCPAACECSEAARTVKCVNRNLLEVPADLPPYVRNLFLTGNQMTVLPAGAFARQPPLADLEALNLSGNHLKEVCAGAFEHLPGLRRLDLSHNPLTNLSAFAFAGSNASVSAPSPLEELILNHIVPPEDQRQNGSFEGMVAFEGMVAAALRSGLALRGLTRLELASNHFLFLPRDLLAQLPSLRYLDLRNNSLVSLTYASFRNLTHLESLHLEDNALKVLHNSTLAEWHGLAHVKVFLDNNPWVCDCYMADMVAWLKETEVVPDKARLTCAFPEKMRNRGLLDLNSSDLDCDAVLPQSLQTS
Nature of the test: Octet bivalent binding assay, mouse 5T4. Further details: key: +: An increase in signal during the association step above the negative control was considered as binding to the antigen. To be noted: 200 nM biotinylated antigen immobilized, antibody at 500 nM.
Text: as §1, §2

For test [1], the target named is T4, biotinylated mouse 5T4 with His-Avi tag (produced in-house) (mouse, UniProt Q9Z0L0 32-361, biotin on the Avi tag).
T4 construct: also called Mouse 5T4 Octet (bivalent); not shown: C-terminal 6-His-Avi tag
T4 sequence: T3 sequence (Q9Z0L0 32-361 limits assumed)
Put plainly: Octet, biotinylated antigen on streptavidin biosensors, antibody at 500 nM (bivalent).

Test [2] deals with T5, biotinylated cynomolgus 5T4 with His-Avi tag (produced in-house) (cynomolgus monkey, UniProt Q4R8Y9 35-355, biotin on the Avi tag).
T5 construct: also called cyno 5T4; Cyno 5T4 Octet (bivalent); not shown: C-terminal 6-His-Avi tag
T5 sequence: T1 sequence (Q4R8Y9 35-355 limits assumed)
The description is as above.

Test [3] addresses T5, biotinylated cynomolgus 5T4 with …. Put plainly: summary of Examples 2-5; form of the antigen not given.

Changes are numbered by the printed parent chain.

B1: mAbA4: 5T4 antibody comprising VH of SEQ ID NO:25 and VL of SEQ ID NO:26 (antibody, V domains shown)
VH: EVQLVESGGGLVQPGGSLRLSCAASGFTFSRYYIHWVRQAPGKGLEWVAFISPGGSYTYYADSVKGRFTISADTSKNTAYLQMNSLRAEDTAVYYCAREYYSMGVLDYWGQGTLVTVSS
VL: DIQMTQSPSSLSASVGDRVTITCRASQSVSSAVAWYQQKPGKAPKLLIYSASSLYSGVPSRFSGSRSGTDFTLTISSLQPEDFATYYCQQAYESPYTFGQGTKVEIK
modifications: Antibody mAbA4 VH Sequence; Antibody mAbA4 VL Sequence
Consider B1, for which the “internalization in HEK-5T4 cells” value in the test with HEK-5T4 cells is reported as “strong internalization”.

B2: mAbA15: 5T4 antibody comprising VH of SEQ ID NO:44 and VL of SEQ ID NO:45 (antibody, V domains shown)
VH: EVQLVESGGGLVQPGGSLRLSCAASGFTFSSYYIHWVRQAPGKGLEWVAYITSTGSYTEYADSVKGRFTISADTSKNTAYLQMNSLRAEDTAVYYCARYDRSTRYSGLDYWGQGTLVTVSS
VL: B1 VL with E93A, S94T, Y96V
modifications: Antibody mAbA15 VH Sequence; Antibody mAbA15 VL Sequence
With B2, the “Cyno 5T4 Octet (bivalent)” value with cyno 5T4 is “+”. The “Human 5T4 Octet (bivalent)” value with human 5T4 was “+”. Also, the “Mouse 5T4 Octet (bivalent)” value in the test with mouse 5T4 is on record as “+”. Further, the “internalization in HEK-5T4 cells” value in the test with HEK-5T4 cells was “strong internalization”.

B3: mAbA17 (antibody, V domains shown)
VH: EVQLVESGGGLVQPGGSLRLSCAASGFTFSRYWIHWVRQAPGKGLEWVAAIFPYSGSTLYADSVKGRFTISADTSKNTAYLQMNSLRAEDTAVYYCARSPSRSILPSGLDYWGQGTLVTVSS
VL: DIQMTQSPSSLSASVGDRVTITCRASQSVSSAVAWYQQKPGKAPKLLIYSASSLYSGVPSRFSGSRSGTDFTLTISSLQPEDFATYYCQQGDGSPYTFGQGTKVEIKR
notes: also called Antibody mAbA17
For B3, the binding result in test [1] and in test [2] was “binds” throughout.

B4: mAbA15 (antibody, V domains shown)
VH: B2 VH
VL: B3 VL with G91A, D92Y, G93A, S94T, Y96V
notes: also called Antibody mAbA15
Consider B4, for which the binding result in test [1] and in test [2] was “binds” each time.

B5: mAbA4 (antibody, V domains shown)
VH: B1 VH
VL: B3 VL with G91A, D92Y, G93E
notes: also called Antibody mAbA4
Take B5: the binding result in test [3] was “binds”.

B6: mAbA17: 5T4 antibody comprising VH of SEQ ID NO:62 and VL of SEQ ID NO:63 (antibody, V domains shown)
VH: B3 VH
VL: B1 VL with A91G, Y92D, E93G
modifications: Antibody mAbA17 VH Sequence; Antibody mAbA17 VL Sequence
On to B6, for which, in the test with cyno 5T4, the “Cyno 5T4 Octet (bivalent)” value is listed as “+”. Also, the “Human 5T4 Octet (bivalent)” value with human 5T4 is recorded as “+”. In the test with mouse 5T4, the “Mouse 5T4 Octet (bivalent)” value was “+”.
